According to patent US20210347873A1 (SHANGHAI PHARMAEXPLORER, published 2021):

Experiments:
human APRIL protein [1] = biological target: T1, human APRIL protein (human, UniProt O75888 105-250, limits assumed); experiment: ELISA, coated APRIL; antibody 0.107 nM
T1 construct: Bought protein; also called recombinant APRIL protein
T1 sequence (looked up): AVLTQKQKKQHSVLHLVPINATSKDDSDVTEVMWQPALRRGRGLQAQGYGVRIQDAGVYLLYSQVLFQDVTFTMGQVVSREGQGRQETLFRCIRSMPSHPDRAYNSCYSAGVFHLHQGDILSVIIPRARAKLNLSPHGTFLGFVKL
In short: (§1)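 Cross-reactivity of BLyS antibodies with human APRIL is measured by ELISA. Wells are coated overnight at 4 °C with 1.0 μg/mL APRIL and blocked 2 h at 37 °C; antibodies, then HRP secondary, are each applied 1 h at 37 °C, and TMB colour is read at 450 nm.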

human APRIL protein [2] = biological target: T1, human APRIL protein; experiment: ELISA, coated APRIL; antibody 0.534 nM
In short: as §1

human APRIL protein [3] = biological target: T1, human APRIL protein; experiment: ELISA, coated APRIL; antibody 66.7 nM
In short: as §1

human APRIL protein [4] = biological target: T1, human APRIL protein; experiment: ELISA, coated APRIL; antibody 0.0213 nM
In short: as §1

human APRIL protein [5] = biological target: T1, human APRIL protein; experiment: ELISA, coated APRIL; antibody 13.3 nM
In short: as §1

human APRIL protein [6] = biological target: T1, human APRIL protein; experiment: ELISA, coated APRIL; antibody 0 nM (blank)
In short: as §1

human APRIL protein [7] = biological target: T1, human APRIL protein; experiment: ELISA, coated APRIL; antibody 0.00427 nM
In short: as §1

human APRIL protein [8] = biological target: T1, human APRIL protein; experiment: ELISA, coated APRIL
Procedure: To test whether the BLyS antibody cross-reacted with human APRIL protein, APRIL protein (purchased from R & D Systems) was first diluted to a final concentration of 1.0 μg/mL with PBS, and then 50 μL of which per well was aliquoted into a 96-well ELISA plate, and the plate was subsequently sealed with plastic film and incubated at 4° C. overnight. On the next day the plate was rinsed four times with the plate washing buffer [PBS buffer containing 0.0500 (v/v) Tween20] and a blocking solution [PBS buffer containing 0.05 (v/v) Tween20 and 1 (w/w) BSA] was added, then the protein was blocked at 37° C. for 2 hours. The blocking solution was removed and 100 μL per well of the lead antibodies prepared in Embodiment 1 and 2 were added in. After incubation for 1 hour at 37° C., the plate was rinsed four times with the plate washing buffer [PBS buffer containing 0.05 (v/v) Tween20]. HRP-labeled (horseradish peroxidase) secondary antibody (purchased from Sigma) was added in and incubated at 37° C. for 1 hour. The plate was then rinsed four times with the plate washing buffer [PBS buffer containing 0.050 (v/v) Tween20]. […] A₄₅₀ₙₘ values were read via an ELISA plate reader (SpectraMax M5e purchased from Molecular Devices) and the results were shown in FIGS. 6A-6B and Table 11. […]

human APRIL protein [9] = biological target: T1, human APRIL protein; experiment: ELISA, coated APRIL; antibody 2.67 nM
In short: as §1

OD450 nm (human APRIL protein [1]): 0.0588 | OD450 nm (human APRIL protein [2]): 0.058 | OD450 nm (human APRIL protein [3]): 0.264 | OD450 nm (human APRIL protein [4]): 0.0563 | OD450 nm (human APRIL protein [5]): 0.0898 | OD450 nm (human APRIL protein [6]): 0.053 | OD450 nm (human APRIL protein [7]): 0.0553 | binding result (human APRIL protein [8]): no binding (tested: 66.7 nM) | OD450 nm (human APRIL protein [9]): 0.0673
B1: 67A2E1D10 (antibody, V domains shown)
VH: EVQLQQSGAELVKPGASVKLSCTASGFNIKNYYMHWVKQRTEEGLEWIGRIDPEDGETKYAPKFQAKATITADTSSNTAYLQLSSLTSEDTAVYFCARKGYYGNYGAWFAYWGQGTLVTVSA
VL: DIQMTQSPASLSVSVGETVTITCRASEDLYSNLAWYQQKQGKSPQLLVYAATFLADGVPSRFSGSGSGTQYSLKINSLQSEDFGNYYCQHFWGTPPTFGGGTKLEIK
notes: Mouse hybridoma antibody purified on Protein G
